In the supplement of paper PMC9170038:

System: K4 kissing-loop RNA reporter
Test: apparent KD of K4 kissing-loop reporter; higher = weaker reporter binding
Conditions: Eterna round: R107
Protocol: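 RNA-MaP round R107: designed RNA switches with theophylline, tryptophan, arginine or FMN aptamers are transcribed on-chip within common flanks. They are titrated with a labelled K4 kissing-loop RNA reporter in RNA-MaP buffer (100 mM Tris pH 7.5, 80 mM KCl, 4 mM MgCl2), without ligand or with the indicated ligand. Median apparent KD per design.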

[1] = input ligand: theophylline 20 uM
[2] = input ligand: tryptophan 2.4 mM
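Further: bound reporter read as fluorescence of individual clusters on recovered sequencing chips by microscopy, with normalized cluster intensities fitted with a binding model.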

AAGUCAUAGGCAGGAUAUGCAUAGUAAUAAGGCCAUAUAUACGUAUAGAGUGAUGUUUUGUACCAGGCAGAAGGGCUACAUCAGU [FMN B Excl V7 (+3A)]
apparent KD of K4 kissing-loop reporter (input ligand: FMN 200 uM): 0.55 µM
apparent KD of K4 kissing-loop reporter (input ligand: arginine 13.2 mM): 0.506 µM
apparent KD of K4 kissing-loop reporter (input ligand: none): 0.594 µM
apparent KD of K4 kissing-loop reporter [1]: 0.643 µM
apparent KD of K4 kissing-loop reporter [2]: 0.47 µM

AAGUCAUAGGCAGGAUAUGCUUAGUAUUAAGGCCAUAUAUACGUAUAGAGUGAUGUUUUGUACCAGGCAGAAGGGCUACAUCAGU [FMN B Excl V6 (+A)]
apparent KD of K4 kissing-loop reporter (input ligand: FMN 200 uM): 0.448 µM
apparent KD of K4 kissing-loop reporter (input ligand: arginine 13.2 mM): 0.483 µM
apparent KD of K4 kissing-loop reporter (input ligand: none): 0.603 µM
apparent KD of K4 kissing-loop reporter [1]: 0.634 µM
apparent KD of K4 kissing-loop reporter [2]: 0.536 µM

AAGUCAUAUAGAAGGAGCGUGUUUUUUAAUUUAUUUUCAUGAUCGAGUGAUGUUCGAUAUACACAGGUAGGUCGCUGUAUAAUAA [hbob_SS_Arginine_B_2t141]
apparent KD of K4 kissing-loop reporter (input ligand: FMN 200 uM): 0.126 µM
apparent KD of K4 kissing-loop reporter (input ligand: arginine 13.2 mM): 0.145 µM
apparent KD of K4 kissing-loop reporter (input ligand: none): 0.127 µM
apparent KD of K4 kissing-loop reporter [1]: 0.179 µM
apparent KD of K4 kissing-loop reporter [2]: 0.112 µM

AAGUGAUGUUGUAGUGAUGUUGUGAUGUUGCAGGAUAUAUAGUGAUGUAGAAGGGUAUGUACUUAUUUGUUUUUUGAGUUAUGUU [zzazzrmullin]
apparent KD of K4 kissing-loop reporter (input ligand: FMN 200 uM): 0.0659 µM
apparent KD of K4 kissing-loop reporter (input ligand: arginine 13.2 mM): 0.0285 µM
apparent KD of K4 kissing-loop reporter (input ligand: none): 0.0531 µM
apparent KD of K4 kissing-loop reporter [1]: 0.041 µM
apparent KD of K4 kissing-loop reporter [2]: 0.0538 µM

AAGUGUCAUUAGACACACCGAUGUAUAAACUAGGAUAUGCUGAUAAGCAGAAGGAGUGAUGUUCCUUUCAUCAUCGGAAUUAAAU [#06 K4 FMN A Exclusion]
apparent KD of K4 kissing-loop reporter (input ligand: FMN 200 uM): 0.301 µM
apparent KD of K4 kissing-loop reporter (input ligand: arginine 13.2 mM): 0.161 µM
apparent KD of K4 kissing-loop reporter (input ligand: none): 0.161 µM
apparent KD of K4 kissing-loop reporter [1]: 0.175 µM
apparent KD of K4 kissing-loop reporter [2]: 0.144 µM

AAUAAAAGAUGUUUAGGAAAGAAAAUGGAAGGAGCGUGCGAAAGCACAGGUAGGUCGCCAGUGAUGUUGGAACCUGAGCAUCAAA [#SwitchBubble 15 #K4Late]
apparent KD of K4 kissing-loop reporter (input ligand: FMN 200 uM): 0.827 µM
apparent KD of K4 kissing-loop reporter (input ligand: arginine 13.2 mM): 0.479 µM
apparent KD of K4 kissing-loop reporter (input ligand: none): 0.699 µM
apparent KD of K4 kissing-loop reporter [1]: 0.677 µM
apparent KD of K4 kissing-loop reporter [2]: 0.436 µM

AAUAAAAUCACGGCCGCCACUGAUUUCCGUAUUAGGAGUGAUGUUCCUAUGACUAUAUAAUUUAACAGGACCGGGUGAAUAUUUA [#21 K4 Tryptophan B Exclusion]
apparent KD of K4 kissing-loop reporter (input ligand: FMN 200 uM): 0.111 µM
apparent KD of K4 kissing-loop reporter (input ligand: arginine 13.2 mM): 0.109 µM
apparent KD of K4 kissing-loop reporter (input ligand: none): 0.11 µM
apparent KD of K4 kissing-loop reporter [1]: 0.107 µM
apparent KD of K4 kissing-loop reporter [2]: 0.0978 µM

AAUAAUAUACAAAGGCGAACGAAUAGGGAAGGAGCGCGAUAUAACGCAGGUAGGUCGCCCAUAUUUUUAGUGAUGUUAGAGAAUA [E. Arginine A Tesla 1]
apparent KD of K4 kissing-loop reporter (input ligand: FMN 200 uM): 0.938 µM
apparent KD of K4 kissing-loop reporter (input ligand: arginine 13.2 mM): 0.762 µM
apparent KD of K4 kissing-loop reporter (input ligand: none): 0.766 µM
apparent KD of K4 kissing-loop reporter [1]: 0.92 µM
apparent KD of K4 kissing-loop reporter [2]: 0.757 µM

AAUGUACAAGUGAUGUUUGUACUUUCCGAAGGAGCGUCAAAUAAGACAGGUAGGUCGCGGAUACUCUAAAUAAUCAGGUCAUUAA [JR_ExcArginiA_Sub019]
apparent KD of K4 kissing-loop reporter (input ligand: FMN 200 uM): 0.0894 µM
apparent KD of K4 kissing-loop reporter (input ligand: arginine 13.2 mM): 0.088 µM
apparent KD of K4 kissing-loop reporter (input ligand: none): 0.0889 µM
apparent KD of K4 kissing-loop reporter [1]: 0.0872 µM
apparent KD of K4 kissing-loop reporter [2]: 0.085 µM

AAUGUACAGGGAAGGAGCGUAGUCCAGUGAUGUUGGAAUUAAAUACCAGUGAUGUUGGUUAUACAGGUAGGUCGCCCUAAAGUGC [KL-XARG-B20]
apparent KD of K4 kissing-loop reporter (input ligand: FMN 200 uM): 0.0863 µM
apparent KD of K4 kissing-loop reporter (input ligand: arginine 13.2 mM): 0.0723 µM
apparent KD of K4 kissing-loop reporter (input ligand: none): 0.0819 µM
apparent KD of K4 kissing-loop reporter [1]: 0.0895 µM
apparent KD of K4 kissing-loop reporter [2]: 0.0732 µM

AAUUCAGUGAUGUUGGAAGGCAGGCGGGAUACCAGCGGAGAAUAACGCCCUUGGCAGCCCAAAUAUCCCAAAUAGAUAAUAGUUC [Same State - Theophylline A (Freestyle 2)]
apparent KD of K4 kissing-loop reporter (input ligand: FMN 200 uM): 0.474 µM
apparent KD of K4 kissing-loop reporter (input ligand: arginine 13.2 mM): 0.353 µM
apparent KD of K4 kissing-loop reporter (input ligand: none): 0.481 µM
apparent KD of K4 kissing-loop reporter [1]: 0.475 µM
apparent KD of K4 kissing-loop reporter [2]: 0.45 µM

AAUUUAUUAACUGAUACCAGACUUUAUUAUUUGUAAAUUACUAGUGAUGUUAGUGUUUCUGUCCCUUGGCAGCAGUAUUUAUUAA [JR_SSTheophyB_Sub024]
apparent KD of K4 kissing-loop reporter (input ligand: FMN 200 uM): 0.0788 µM
apparent KD of K4 kissing-loop reporter (input ligand: arginine 13.2 mM): 0.142 µM
apparent KD of K4 kissing-loop reporter (input ligand: none): 0.0903 µM
apparent KD of K4 kissing-loop reporter [1]: 0.134 µM
apparent KD of K4 kissing-loop reporter [2]: 0.0705 µM

AAUUUUAAUAAUAAAUAAUAAAUAAAUGAUACCAGUAUUUUUUUUUACCCUUGGCAGCGUAUAUAAGGGCAGUGAUGUUGUCAAA [whbob_SS_Theo_A_w58]
apparent KD of K4 kissing-loop reporter (input ligand: FMN 200 uM): 0.205 µM
apparent KD of K4 kissing-loop reporter (input ligand: arginine 13.2 mM): 0.136 µM
apparent KD of K4 kissing-loop reporter (input ligand: none): 0.153 µM
apparent KD of K4 kissing-loop reporter [1]: 0.196 µM
apparent KD of K4 kissing-loop reporter [2]: 0.169 µM

AAUUUUAAUCAUAAAUAAUAAAUAAAUGAUACCAGUAUUUUUUUUUACCCUUGGCAGCGUAUAUAAGGGCAGUGAUGUUGUCAGA [whbob_SS_Theo_A_w60]
apparent KD of K4 kissing-loop reporter (input ligand: FMN 200 uM): 0.236 µM
apparent KD of K4 kissing-loop reporter (input ligand: arginine 13.2 mM): 0.0988 µM
apparent KD of K4 kissing-loop reporter (input ligand: none): 0.257 µM
apparent KD of K4 kissing-loop reporter [1]: 0.222 µM
apparent KD of K4 kissing-loop reporter [2]: 0.164 µM

ACACGUGUGGCAGGAUAUCGGGCUGUGGAUCGGCUGGUUGCUUAUUCUCGACCAGUGAUGUUGGUACGAGAAGGGCUACCCAGAA [Diorce]
apparent KD of K4 kissing-loop reporter (input ligand: FMN 200 uM): 0.149 µM
apparent KD of K4 kissing-loop reporter (input ligand: arginine 13.2 mM): 0.113 µM
apparent KD of K4 kissing-loop reporter (input ligand: none): 0.114 µM
apparent KD of K4 kissing-loop reporter [1]: 0.102 µM
apparent KD of K4 kissing-loop reporter [2]: 0.123 µM

ACACUAUCGUCAUAGACGGUAGUGAAAUGUGAGGAUAUGAGUGAUGUUAGAAGGCACAAAGACUGUAUCGAAUAGAUACAGUCAA [FmnA 6 #K4BetweenAptamer #OpenEnded]
apparent KD of K4 kissing-loop reporter (input ligand: FMN 200 uM): 0.558 µM
apparent KD of K4 kissing-loop reporter (input ligand: arginine 13.2 mM): 0.0965 µM
apparent KD of K4 kissing-loop reporter (input ligand: none): 0.139 µM
apparent KD of K4 kissing-loop reporter [1]: 0.127 µM
apparent KD of K4 kissing-loop reporter [2]: 0.12 µM

ACACUUACACAUGAUACCAGAAUUCUACCGUAAAUAGUAAGUGAUGUUUGCUAACGGCUUUUCCCUUGGCAGCAUGAUCGGUAUU [theeternabot_sameState_KL_Theo_B_43]
apparent KD of K4 kissing-loop reporter (input ligand: FMN 200 uM): 0.201 µM
apparent KD of K4 kissing-loop reporter (input ligand: arginine 13.2 mM): 0.121 µM
apparent KD of K4 kissing-loop reporter (input ligand: none): 0.178 µM
apparent KD of K4 kissing-loop reporter [1]: 0.242 µM
apparent KD of K4 kissing-loop reporter [2]: 0.149 µM

ACACUUUACGUAGGAUAUGCGACGAGUGAUGUUCGUCAGGCGGCUUGAGCUUAAACAGGCCGUCUAGCAGAAGGACGGGCAGUGU [Diorsodi]
apparent KD of K4 kissing-loop reporter (input ligand: FMN 200 uM): 0.147 µM
apparent KD of K4 kissing-loop reporter (input ligand: arginine 13.2 mM): 0.143 µM
apparent KD of K4 kissing-loop reporter (input ligand: none): 0.192 µM
apparent KD of K4 kissing-loop reporter [1]: 0.194 µM
apparent KD of K4 kissing-loop reporter [2]: 0.168 µM

ACAGUCGGCUGUGAUACCAGUCGUAUUACAACAUGUUGCAGUGAUGUUGCGAGAUAGGAUGACCCUUGGCAGCACUCAGUACGAU [Same State Theophylline B GF9]
apparent KD of K4 kissing-loop reporter (input ligand: FMN 200 uM): 0.31 µM
apparent KD of K4 kissing-loop reporter (input ligand: arginine 13.2 mM): 0.0997 µM
apparent KD of K4 kissing-loop reporter (input ligand: none): 0.173 µM
apparent KD of K4 kissing-loop reporter [1]: 0.179 µM
apparent KD of K4 kissing-loop reporter [2]: 0.144 µM

ACCUAGUAGACAGGAUAUCACGAUGACAGUGAUGUUGUCAUCAUCGAUUUGAGGAAACUCAGAUCGUGAGAAGGGUCUAACGACU [FMN B SS t7a]
apparent KD of K4 kissing-loop reporter (input ligand: FMN 200 uM): 0.147 µM
apparent KD of K4 kissing-loop reporter (input ligand: arginine 13.2 mM): 0.173 µM
apparent KD of K4 kissing-loop reporter (input ligand: none): 0.204 µM
apparent KD of K4 kissing-loop reporter [1]: 0.168 µM
apparent KD of K4 kissing-loop reporter [2]: 0.19 µM

ACGUCACGUAUACUGGUGGUUUCGAUCGAUACCAGUAGCGAGAGUUACCCUUGGCAGCGACAUGAGUGAUGUUUAUGUAUGAUGA [#13 K4 Theophylline A Exclusion]
apparent KD of K4 kissing-loop reporter (input ligand: FMN 200 uM): 0.639 µM
apparent KD of K4 kissing-loop reporter (input ligand: arginine 13.2 mM): 0.551 µM
apparent KD of K4 kissing-loop reporter (input ligand: none): 0.593 µM
apparent KD of K4 kissing-loop reporter [1]: 0.56 µM
apparent KD of K4 kissing-loop reporter [2]: 0.492 µM

ACGUCCGGAUUAAUCGUGGGCAUGGUCGAUACCAGAUCUUUAAUGAUCCCUUGGCAGCGACAUGAGUGAUGUUCAUGUGCGAUGA [KL-XTheo-A8 #analogue]
apparent KD of K4 kissing-loop reporter (input ligand: FMN 200 uM): 0.188 µM
apparent KD of K4 kissing-loop reporter (input ligand: arginine 13.2 mM): 0.152 µM
apparent KD of K4 kissing-loop reporter (input ligand: none): 0.186 µM
apparent KD of K4 kissing-loop reporter [1]: 0.244 µM
apparent KD of K4 kissing-loop reporter [2]: 0.179 µM
